This data set deals with Escherichia coli TOP10. Description: shrunken log2 fold change of peptide-encoding DNA abundance (4.5 h post-induction vs induction); higher = less antimicrobial activity (less host growth inhibition). The following applies: time post-induction: 4.5 h; library: site-saturation at positions 5, 18, 19, 20.

This note sets out measurements from the supplement of paper PMC9112550, “Optimization of the antimicrobial peptide Bac7 by deep mutational scanning” (BMC Biology, 2022).
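Also: peptides expressed intracellularly from a pBAD plasmid library in pooled LB shake-flask culture, induced with 0.3% L-arabinose, DNA abundance read by NGS, three biological replicates, DESeq2 with apeglm shrinkage.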

As for RRIRRRPPRLPRPRPRPESEPRP, the “shrunken log2 fold change” value was 0.0778.

RRIRYRPPRLPRPRPRPECSPRP: the “shrunken log2 fold change” value was -0.15.

With RRIRARPPRLPRPRPRPQPFPRP, the “shrunken log2 fold change” value was -0.0268.

Regarding RRIRKRPPRLPRPRPRPMGEPRP, the “shrunken log2 fold change” value was -0.0199.

Take RRIRNRPPRLPRPRPRPTYHPRP: the “shrunken log2 fold change” value is -0.526.

With RRIRPRPPRLPRPRPRPQCMPRP, the “shrunken log2 fold change” value is -0.312.

On to RRIRVRPPRLPRPRPRPARHPRP, for which the “shrunken log2 fold change” value came out at 0.287.

On to RRIRSRPPRLPRPRPRPTYDPRP, for which the “shrunken log2 fold change” value was -0.262.

In the case of RRIRWRPPRLPRPRPRPNCAPRP, the “shrunken log2 fold change” value turned out to be 0.255.

Regarding RRIRTRPPRLPRPRPRPARRPRP, the “shrunken log2 fold change” value was determined as 0.204.

As for RRIRRRPPRLPRPRPRPISNPRP, the “shrunken log2 fold change” value was -0.269.

With RRIRHRPPRLPRPRPRPVDPPRP, the “shrunken log2 fold change” value was -0.0989.

Consider RRIRNRPPRLPRPRPRPHSGPRP, for which the “shrunken log2 fold change” value is -0.517.

For the sequence RRIRYRPPRLPRPRPRPEYEPRP, the “shrunken log2 fold change” value is -0.0176.

As to RRIRLRPPRLPRPRPRPAVGPRP, the “shrunken log2 fold change” value was -0.0315.

Take RRIRVRPPRLPRPRPRPHTIPRP: the “shrunken log2 fold change” value was -0.487.

As to RRIRERPPRLPRPRPRPKQWPRP, the “shrunken log2 fold change” value worked out at 0.0081.

For RRIRDRPPRLPRPRPRPKGEPRP, the “shrunken log2 fold change” value is 0.0647.

Take RRIRMRPPRLPRPRPRPFACPRP: the “shrunken log2 fold change” value was -0.1.

Consider RRIRTRPPRLPRPRPRPTVQPRP, for which the “shrunken log2 fold change” value amounted to 0.0928.

Take RRIRLRPPRLPRPRPRPKIQPRP: the “shrunken log2 fold change” value is -0.131.

Consider RRIRERPPRLPRPRPRPGYEPRP, for which the “shrunken log2 fold change” value was -0.00204.

For the sequence RRIRHRPPRLPRPRPRPPSQPRP, the “shrunken log2 fold change” value is -0.232.

As to RRIRLRPPRLPRPRPRPAQDPRP, the “shrunken log2 fold change” value came to 0.392.

Consider RRIRRRPPRLPRPRPRPDPVPRP, for which the “shrunken log2 fold change” value came out at 0.0811.

With RRIRKRPPRLPRPRPRPYLHPRP, the “shrunken log2 fold change” value was -0.31.

For the sequence RRIRDRPPRLPRPRPRPFATPRP, the “shrunken log2 fold change” value was determined as 0.271.

Take RRIRSRPPRLPRPRPRPQIIPRP: the “shrunken log2 fold change” value was -0.226.

Regarding RRIRARPPRLPRPRPRPWYYPRP, the “shrunken log2 fold change” value was -0.628.

Consider RRIRSRPPRLPRPRPRPVTDPRP, for which the “shrunken log2 fold change” value stood at 0.102.

Regarding RRIRKRPPRLPRPRPRPDFWPRP, the “shrunken log2 fold change” value came out at 1.06.

In the case of RRIRARPPRLPRPRPRPRSAPRP, the “shrunken log2 fold change” value worked out at 0.681.

RRIRFRPPRLPRPRPRPRNAPRP: the “shrunken log2 fold change” value turned out to be 0.347.

As for RRIRCRPPRLPRPRPRPWWMPRP, the “shrunken log2 fold change” value was -0.0465.

Regarding RRIRARPPRLPRPRPRPPGVPRP, the “shrunken log2 fold change” value is 0.158.

Consider RRIRDRPPRLPRPRPRPFLLPRP, for which the “shrunken log2 fold change” value was 0.0901.

For RRIRFRPPRLPRPRPRPDGPPRP, the “shrunken log2 fold change” value was found to be 0.0689.

Take RRIRTRPPRLPRPRPRPVHRPRP: the “shrunken log2 fold change” value was -0.0993.

Take RRIRQRPPRLPRPRPRPWGNPRP: the “shrunken log2 fold change” value came to 0.0303.

RRIRSRPPRLPRPRPRPLEWPRP: the “shrunken log2 fold change” value came out at 0.14.

With RRIRMRPPRLPRPRPRPGYWPRP, the “shrunken log2 fold change” value turned out to be 0.0653.

Turning to RRIRLRPPRLPRPRPRPKAQPRP, the “shrunken log2 fold change” value is -0.00354.

Consider RRIRQRPPRLPRPRPRPLWFPRP, for which the “shrunken log2 fold change” value was -0.0512.

On to RRIRCRPPRLPRPRPRPGLRPRP, for which the “shrunken log2 fold change” value was 0.147.

On to RRIRARPPRLPRPRPRPDDKPRP, for which the “shrunken log2 fold change” value is -0.112.

Consider RRIRWRPPRLPRPRPRPACIPRP, for which the “shrunken log2 fold change” value was 0.0736.

Regarding RRIRCRPPRLPRPRPRPMRQPRP, the “shrunken log2 fold change” value was 0.076.

RRIRDRPPRLPRPRPRPNPVPRP: the “shrunken log2 fold change” value is -0.41.

As to RRIRDRPPRLPRPRPRPINVPRP, the “shrunken log2 fold change” value is 0.0039.

Consider RRIRPRPPRLPRPRPRPWTHPRP, for which the “shrunken log2 fold change” value is -0.0188.

As to RRIRQRPPRLPRPRPRPPPDPRP, the “shrunken log2 fold change” value was determined as 0.701.

Regarding RRIRPRPPRLPRPRPRPEHSPRP, the “shrunken log2 fold change” value is -0.0353.

As to RRIRQRPPRLPRPRPRPIPLPRP, the “shrunken log2 fold change” value was -0.182.

Take RRIRLRPPRLPRPRPRPSRYPRP: the “shrunken log2 fold change” value was -0.0576.

On to RRIRHRPPRLPRPRPRPEIIPRP, for which the “shrunken log2 fold change” value is -0.496.

Regarding RRIRVRPPRLPRPRPRPGELPRP, the “shrunken log2 fold change” value was -0.0483.

Take RRIRMRPPRLPRPRPRPQTDPRP: the “shrunken log2 fold change” value stood at 0.19.

RRIRARPPRLPRPRPRPWSTPRP: the “shrunken log2 fold change” value was found to be 0.0839.

Regarding RRIRWRPPRLPRPRPRPLTRPRP, the “shrunken log2 fold change” value was found to be 2.04.

Take RRIRARPPRLPRPRPRPNSQPRP: the “shrunken log2 fold change” value was 0.0062.

Consider RRIRCRPPRLPRPRPRPHLCPRP, for which the “shrunken log2 fold change” value is -0.111.

For the sequence RRIRMRPPRLPRPRPRPDFMPRP, the “shrunken log2 fold change” value was -0.0119.

For the sequence RRIRSRPPRLPRPRPRPDADPRP, the “shrunken log2 fold change” value was -0.0578.

On to RRIRIRPPRLPRPRPRPSLMPRP, for which the “shrunken log2 fold change” value was -0.246.

For RRIRGRPPRLPRPRPRPDGTPRP, the “shrunken log2 fold change” value worked out at 1.02.

Turning to RRIRNRPPRLPRPRPRPFGGPRP, the “shrunken log2 fold change” value is -0.133.

Regarding RRIRPRPPRLPRPRPRPNCFPRP, the “shrunken log2 fold change” value is -0.0261.

RRIRNRPPRLPRPRPRPNMEPRP: the “shrunken log2 fold change” value is -0.0369.

On to RRIRSRPPRLPRPRPRPDWGPRP, for which the “shrunken log2 fold change” value was -0.128.

With RRIRERPPRLPRPRPRPCSGPRP, the “shrunken log2 fold change” value is -0.434.

For RRIRYRPPRLPRPRPRPFINPRP, the “shrunken log2 fold change” value is -1.17.

In the case of RRIRHRPPRLPRPRPRPTPCPRP, the “shrunken log2 fold change” value is 0.00473.

Turning to RRIRHRPPRLPRPRPRPAKEPRP, the “shrunken log2 fold change” value amounted to 0.0203.

In the case of RRIRPRPPRLPRPRPRPRLNPRP, the “shrunken log2 fold change” value was 0.307.

In the case of RRIRTRPPRLPRPRPRPWCEPRP, the “shrunken log2 fold change” value was 0.0211.

In the case of RRIRDRPPRLPRPRPRPRQMPRP, the “shrunken log2 fold change” value was 0.019.

With RRIRCRPPRLPRPRPRPPCWPRP, the “shrunken log2 fold change” value was 0.264.

Consider RRIRKRPPRLPRPRPRPSAIPRP, for which the “shrunken log2 fold change” value was -0.00962.

As to RRIRDRPPRLPRPRPRPFYVPRP, the “shrunken log2 fold change” value was -0.0754.

On to RRIRSRPPRLPRPRPRPYVKPRP, for which the “shrunken log2 fold change” value is -0.351.

In the case of RRIRKRPPRLPRPRPRPNKRPRP, the “shrunken log2 fold change” value is -0.0102.

Consider RRIRNRPPRLPRPRPRPEPPPRP, for which the “shrunken log2 fold change” value worked out at 0.758.

With RRIRNRPPRLPRPRPRPGDNPRP, the “shrunken log2 fold change” value came to 0.0229.

Consider RRIRCRPPRLPRPRPRPCHQPRP, for which the “shrunken log2 fold change” value worked out at 0.0175.

With RRIRTRPPRLPRPRPRPRWQPRP, the “shrunken log2 fold change” value amounted to 0.47.

Take RRIRYRPPRLPRPRPRPSLQPRP: the “shrunken log2 fold change” value was -0.126.

On to RRIRKRPPRLPRPRPRPQKFPRP, for which the “shrunken log2 fold change” value is 0.0144.

Take RRIRSRPPRLPRPRPRPMMKPRP: the “shrunken log2 fold change” value worked out at 1.75.

As for RRIRIRPPRLPRPRPRPIACPRP, the “shrunken log2 fold change” value is -0.0842.

On to RRIRERPPRLPRPRPRPNEEPRP, for which the “shrunken log2 fold change” value is 0.00699.

RRIRIRPPRLPRPRPRPAYWPRP: the “shrunken log2 fold change” value was -0.0439.

Take RRIRSRPPRLPRPRPRPWVHPRP: the “shrunken log2 fold change” value is -0.221.

Turning to RRIRARPPRLPRPRPRPHQMPRP, the “shrunken log2 fold change” value was -0.066.

In the case of RRIRWRPPRLPRPRPRPFCTPRP, the “shrunken log2 fold change” value is -0.137.

On to RRIRRRPPRLPRPRPRPSRYPRP, for which the “shrunken log2 fold change” value worked out at 1.35.

Regarding RRIRFRPPRLPRPRPRPHSEPRP, the “shrunken log2 fold change” value was -0.276.

RRIRGRPPRLPRPRPRPFKFPRP: the “shrunken log2 fold change” value was -0.11.

As to RRIRLRPPRLPRPRPRPVFPPRP, the “shrunken log2 fold change” value stood at 0.263.

Take RRIRTRPPRLPRPRPRPSGSPRP: the “shrunken log2 fold change” value is 0.204.

As for RRIRKRPPRLPRPRPRPEKQPRP, the “shrunken log2 fold change” value is -0.0582.

With RRIRCRPPRLPRPRPRPHHGPRP, the “shrunken log2 fold change” value was -0.261.

Turning to RRIRWRPPRLPRPRPRPNRAPRP, the “shrunken log2 fold change” value came out at 0.0222.

Consider RRIRDRPPRLPRPRPRPDDTPRP, for which the “shrunken log2 fold change” value is 0.336.

As for RRIRGRPPRLPRPRPRPVVVPRP, the “shrunken log2 fold change” value turned out to be 0.985.

With RRIRCRPPRLPRPRPRPVGQPRP, the “shrunken log2 fold change” value was 0.0533.

RRIRKRPPRLPRPRPRPAAAPRP: the “shrunken log2 fold change” value is 0.896.

With RRIRLRPPRLPRPRPRPGDHPRP, the “shrunken log2 fold change” value is -0.202.

For RRIRGRPPRLPRPRPRPSCAPRP, the “shrunken log2 fold change” value is 1.08.

RRIRWRPPRLPRPRPRPYGAPRP: the “shrunken log2 fold change” value is -0.0532.

In the case of RRIRGRPPRLPRPRPRPWFGPRP, the “shrunken log2 fold change” value was -0.05.

Turning to RRIRVRPPRLPRPRPRPLTIPRP, the “shrunken log2 fold change” value is -0.329.

In the case of RRIRERPPRLPRPRPRPIRNPRP, the “shrunken log2 fold change” value is -0.343.

In the case of RRIRSRPPRLPRPRPRPPKLPRP, the “shrunken log2 fold change” value is -0.11.

RRIRTRPPRLPRPRPRPPGDPRP: the “shrunken log2 fold change” value was determined as 0.189.

On to RRIRWRPPRLPRPRPRPNIVPRP, for which the “shrunken log2 fold change” value is -0.112.

Turning to RRIRCRPPRLPRPRPRPWFCPRP, the “shrunken log2 fold change” value is -0.177.

In the case of RRIRCRPPRLPRPRPRPIYPPRP, the “shrunken log2 fold change” value was -0.386.

RRIRPRPPRLPRPRPRPFKKPRP: the “shrunken log2 fold change” value was -0.161.

Consider RRIRSRPPRLPRPRPRPDCMPRP, for which the “shrunken log2 fold change” value was -0.165.

As for RRIRKRPPRLPRPRPRPYLLPRP, the “shrunken log2 fold change” value is -0.525.

As to RRIRYRPPRLPRPRPRPRKLPRP, the “shrunken log2 fold change” value is -0.14.

RRIRWRPPRLPRPRPRPPAMPRP: the “shrunken log2 fold change” value worked out at 1.57.

As for RRIRARPPRLPRPRPRPHHFPRP, the “shrunken log2 fold change” value was -0.0814.

Turning to RRIRNRPPRLPRPRPRPGCSPRP, the “shrunken log2 fold change” value stood at 0.121.

Take RRIRMRPPRLPRPRPRPGTYPRP: the “shrunken log2 fold change” value was -0.163.
